According to publication PMC7568338 (Proceedings of the National Academy of Sciences of the …, 2020):

Molecular target: the molecule itself
Test: SEC

Protein	binding result
^D645CClpA (enzyme, E. coli, UniProt P0ABH9 1-749, looked up) MLNQELELSLNMAFARAREHRHEFMTVEHLLLALLSNPSAREALEASSVDLVALRQELEAFIEQTTPVLPASEEERDTQPTLSFQRVLQRAVFHVQSSGRNEVTGANVLVAIFSEQESQAAYLLRKHEVSRLDVVNFISHGTRKDEPTQSSDPGSQPNSEEQAGGEERMENFTTNLNQLARVGGIDPLIGREKELERAIQVLSRRRKNNPLLVGESGVGKTAIAEGLAWRIVQGDVPEVMADSTIYSLDIGSLLAGTKYRGDFEKRFKALLKQLEQDTNSILFIDEIHTIIGAGAASGGQVDAANLIKPLLSSGKIRVIGSTTYQEFSNIFEKDRALARRFQKIDITEPSIEETVQIINGLKPKYEAHHDVRYTAKAVRAAVELAVKYINDRHLPDKAIDVIDEAGARARLMPVSKRKKTVNVADIESVVARIARIPEKSVSQSDRDTLKNLGDRLKMLVFGQDKAIEALTEAIKMARAGLGHEHKPVGSFLFAGPTGVGKTEVTVQLSKALGIELLRFDMSEYMERHTVSRLIGAPPGYVGFDQGGLLTDAVIKHPHAVLLLDEIEKAHPDVFNILLQVMDNGTLTDNNGRKADFRNVVLVMTTNAGVRETERKSIGLIHQDNSTDAMEEIKKIFTPEFRNRLCNIIWFDHLSTDVIHQVVDKFIVELQVQLDQKGVSLEVSQEARNWLAEKGYDRAMGARPMARVIQDNLKKPLANELLFGSLVDGGQVTVALDKEKNELTYGFQSA	binds
^Q709CClpA (enzyme, E. coli, UniProt P0ABH9 1-749, looked up) MLNQELELSLNMAFARAREHRHEFMTVEHLLLALLSNPSAREALEASSVDLVALRQELEAFIEQTTPVLPASEEERDTQPTLSFQRVLQRAVFHVQSSGRNEVTGANVLVAIFSEQESQAAYLLRKHEVSRLDVVNFISHGTRKDEPTQSSDPGSQPNSEEQAGGEERMENFTTNLNQLARVGGIDPLIGREKELERAIQVLSRRRKNNPLLVGESGVGKTAIAEGLAWRIVQGDVPEVMADSTIYSLDIGSLLAGTKYRGDFEKRFKALLKQLEQDTNSILFIDEIHTIIGAGAASGGQVDAANLIKPLLSSGKIRVIGSTTYQEFSNIFEKDRALARRFQKIDITEPSIEETVQIINGLKPKYEAHHDVRYTAKAVRAAVELAVKYINDRHLPDKAIDVIDEAGARARLMPVSKRKKTVNVADIESVVARIARIPEKSVSQSDRDTLKNLGDRLKMLVFGQDKAIEALTEAIKMARAGLGHEHKPVGSFLFAGPTGVGKTEVTVQLSKALGIELLRFDMSEYMERHTVSRLIGAPPGYVGFDQGGLLTDAVIKHPHAVLLLDEIEKAHPDVFNILLQVMDNGTLTDNNGRKADFRNVVLVMTTNAGVRETERKSIGLIHQDNSTDAMEEIKKIFTPEFRNRLDNIIWFDHLSTDVIHQVVDKFIVELQVQLDQKGVSLEVSQEARNWLAEKGYDRAMGARPMARVICDNLKKPLANELLFGSLVDGGQVTVALDKEKNELTYGFQSA	binds
